Measurements reported in PMC8933513 (2022).

What was measured:
[1] = biological target: porcine aminopeptidase N (pAPN) ectodomain, residues 58-961, wild type (pig) (UniProt P15145); test: SPR; […], room temperature; […] (0.01 M HEPES, 0.15 M NaCl, 0.5% surfactant P20, 3 mM EDTA, pH 7.4); […]
[2] = biological target: human aminopeptidase N (hAPN) ectodomain, residues 62-963, wild type (UniProt P15144); test: as above
Sequence of human aminopeptidase N (hAPN) ectodomain, residues 62-963, wild type (P15144 62-963): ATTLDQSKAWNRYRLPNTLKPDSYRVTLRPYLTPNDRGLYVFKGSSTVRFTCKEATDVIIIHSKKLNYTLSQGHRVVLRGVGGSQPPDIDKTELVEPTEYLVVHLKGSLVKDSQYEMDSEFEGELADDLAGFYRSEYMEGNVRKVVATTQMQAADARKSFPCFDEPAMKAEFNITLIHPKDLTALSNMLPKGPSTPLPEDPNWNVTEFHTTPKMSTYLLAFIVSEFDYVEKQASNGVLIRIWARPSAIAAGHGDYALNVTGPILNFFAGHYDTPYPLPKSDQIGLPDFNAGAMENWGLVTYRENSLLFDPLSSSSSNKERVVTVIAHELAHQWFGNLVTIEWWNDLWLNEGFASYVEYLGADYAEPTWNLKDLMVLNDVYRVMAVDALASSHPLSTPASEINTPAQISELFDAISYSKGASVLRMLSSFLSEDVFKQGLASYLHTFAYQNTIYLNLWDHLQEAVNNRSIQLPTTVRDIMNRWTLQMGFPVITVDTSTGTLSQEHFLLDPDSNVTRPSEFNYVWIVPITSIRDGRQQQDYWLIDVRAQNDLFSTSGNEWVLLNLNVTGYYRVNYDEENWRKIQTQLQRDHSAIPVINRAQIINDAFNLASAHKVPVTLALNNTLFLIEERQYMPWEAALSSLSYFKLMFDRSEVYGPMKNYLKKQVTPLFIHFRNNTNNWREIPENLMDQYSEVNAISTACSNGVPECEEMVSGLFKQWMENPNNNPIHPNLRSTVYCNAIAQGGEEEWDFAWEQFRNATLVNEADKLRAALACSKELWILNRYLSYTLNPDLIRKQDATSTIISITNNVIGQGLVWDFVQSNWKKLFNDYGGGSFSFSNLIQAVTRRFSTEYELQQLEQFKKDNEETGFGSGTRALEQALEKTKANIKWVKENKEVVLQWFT

Sequence of porcine aminopeptidase N (pAPN) ectodomain, residues 58-961, wild type (pig) (P15145 58-961): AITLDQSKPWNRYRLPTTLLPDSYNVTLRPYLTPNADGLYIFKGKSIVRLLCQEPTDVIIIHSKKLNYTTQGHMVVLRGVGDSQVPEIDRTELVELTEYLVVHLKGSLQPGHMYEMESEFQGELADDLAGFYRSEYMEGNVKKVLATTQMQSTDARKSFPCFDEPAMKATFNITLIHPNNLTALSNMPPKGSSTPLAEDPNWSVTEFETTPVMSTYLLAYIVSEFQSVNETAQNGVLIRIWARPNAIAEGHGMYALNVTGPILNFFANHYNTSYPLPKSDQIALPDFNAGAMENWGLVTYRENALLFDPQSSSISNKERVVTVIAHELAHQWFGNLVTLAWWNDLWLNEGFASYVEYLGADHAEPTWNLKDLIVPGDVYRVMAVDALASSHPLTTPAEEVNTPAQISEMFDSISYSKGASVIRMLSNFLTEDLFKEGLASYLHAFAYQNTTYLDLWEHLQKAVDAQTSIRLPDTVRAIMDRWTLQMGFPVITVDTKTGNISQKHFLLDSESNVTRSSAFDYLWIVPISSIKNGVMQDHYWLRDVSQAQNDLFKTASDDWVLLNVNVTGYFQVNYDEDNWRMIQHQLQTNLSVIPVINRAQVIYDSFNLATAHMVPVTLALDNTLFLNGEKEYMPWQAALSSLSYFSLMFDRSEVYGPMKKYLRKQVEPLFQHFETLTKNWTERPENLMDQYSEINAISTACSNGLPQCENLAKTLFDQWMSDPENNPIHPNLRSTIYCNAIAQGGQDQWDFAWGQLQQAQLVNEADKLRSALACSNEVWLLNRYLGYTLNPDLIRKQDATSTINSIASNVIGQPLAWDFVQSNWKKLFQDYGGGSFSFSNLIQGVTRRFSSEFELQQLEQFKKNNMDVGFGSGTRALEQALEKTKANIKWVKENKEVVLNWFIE

PDCoV RBD with mutation of residues F318, E320, R322, R357, and Y398
fold decrease in affinity against wild-type PDCoV RBD [1]: 5 to 150 fold | fold decrease in affinity against wild-type PDCoV RBD [2]: 5 to 150 fold
